Test results from publication PMC9398157.
Several values for one entry are separate records, joined by “and”; a condition that tells them apart may be missing. Equal entries are not always repeated. Where two headings read alike, the source gives them in different places.

Experiments:
[1] = molecular target: DR5 on Colo205 and H-EMC-SS cells (Homo sapiens) (UniProt O14763)
[2] = molecular target: Death receptor 5 (human DR5), as used in SPR, Octet and ELISA (human) (UniProt O14763); assay: SPR
[3] = molecular target: Death receptor 5 (human DR5), as used in SPR, Octet and ELISA (human) (UniProt O14763); assay: SPR; remark: listed apart in the source
[4] = molecular target: DR5 on Colo205 and H-EMC-SS cells (Homo sapiens) (UniProt O14763); assay: flow cytometry on cells
[5] = molecular target: DR5 on Colo205 and H-EMC-SS cells (Homo sapiens) (UniProt O14763); assay: flow cytometry on cells; remark: listed apart in the source

IGM-8444 (antibody) was tested, and the cytotoxicity on Colo205 cells, IC50 (CellTiter-Glo viability after 24 hours) [1] was 1.1 ng/mL and 1.3 pmol/L, the cytotoxicity on H-EMC-SS cells, IC50 (CellTiter-Glo viability after 24 hours) [1] was 0.32 ng/mL and 0.37 pmol/L and the Kd [2] was less than 0.011 nM. The Kd [3] was 85 nM, the EC50 [4] was 0.2 nM and the EC50 [5] was 0.073 nM.
